According to patent US6656471:

Biological target: HLA class I (human)
Test: cell-based or functional assay

Substance: W6/32, the class I-specific antibody, from hybridoma culture supernatants (ATCC: HB95)
- reduction in HIV-1 envelope-specific CTL activity (PBMCs from LB, E:T 25:1, 1:4 dilution of W6/32 supernatant): 73%
- specific lysis value with W6/32 (E:T 25:1): 6.2%
- specific lysis value without W6/32 (E:T 25:1): 23.2%
